Experimental data published in patent US20160207996A1 (ARGEN X N V, published 2016).
Where a chain is given by its changes, count along the chain named.

T1: hNav1.7-loopA3-llama Fc fusion (human)
T1 construct: also called hNav1.7-loopA3-llFc; loopA3-llamaFc chimera
T1 chain: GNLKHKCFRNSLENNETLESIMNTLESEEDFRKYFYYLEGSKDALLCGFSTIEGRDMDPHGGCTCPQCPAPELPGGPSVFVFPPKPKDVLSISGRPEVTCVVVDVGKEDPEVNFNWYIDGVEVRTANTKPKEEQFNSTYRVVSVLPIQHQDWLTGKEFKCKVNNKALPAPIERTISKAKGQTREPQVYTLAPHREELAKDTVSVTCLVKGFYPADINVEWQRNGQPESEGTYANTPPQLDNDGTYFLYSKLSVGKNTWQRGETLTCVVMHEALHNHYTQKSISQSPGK

B1: scFv D2 (scFv)
chain: ELQLVESGGGLVQPGGSLRLSCATSGFTFSNYYMSWVRQAPGKGPEWVSSIYSDLSTTYYADSVKGRFTISRDRAKNTLYLQMNSLKSEDTAVYYCARLSTVAGVDYWGKGTLVTVSSSYELTQSPSVSVALRQAAKITCGGNDIGSKSAQWYQQKPGQAPVLVIYADSRRPSGIPERFSGSNSGNTATLTISGAQAEDEADYYCQVWDSSANAAVFGGGTHLTVLG
B2: scFv D3 (scFv)
chain: QVQVQESGGGLVQPGGSLRLSCATSGFTFSNYYMSWVRQAPGKGPEWVSSIYSDLSTTYYADSVKGRFTISRDRAKNTLYLQMNSLKSEDTAVYYCARLSTVAGMDYWGKGTLVTVSSSYELTQSPSVSVALRQTAKITCGGNDIESKSAQWYQQKPDQAPVLVIYADDRRPSEIPERFSGSNSGDTATLTISGAQAEDEADYYCQVWDSSANAAVFGGGTHLTVLG
B3: scFv D1 (scFv)
chain: QVQLQESGGGLVQPGGSLRLSCAASGFTFSWYAMSWVRQGPGKGLEWVSGINGGGGSTSYEDSVKGRFTISRDNAKNTLYLEMNSLKPEDTAVYYCARYSDGYSGSYTYTDMDYWGKGTLVSVSSQAVVTQEPSLSVSPGGTVTLTCGLNSGSVTNGNYPGWYQQTPGQAPRALIYSTNSRHSGVPGRYSGSISGNKAALTITGAEPEDEADYYCALWQAAGTVVFGGGTHLTVLG
B4: 4H6 (antibody, human IgG1, V domains shown)
VH: QVQLQESGPGLVKPSQTLSLTCTVSGGSITNYGWSWIRQPPGKGLEWMGVIAYDGSTYYSPSLKSRTSISRDTSKNQFSLQLSSVTPEDTAVYYCASAMVTTSSPWVKTFGAWGQGTQVTVSS
VL: QAGLTQPPSVSGSPGKTVTISCAGTSSDVGYGNYVSWYQQLPGMAPKLLLYSVNKRASGIADRFSGSKSGNTASLTISGLQSEDEADYYCGCYDSSLSTPVFGGGTKLTVLG
B5: 2D11 (antibody, human IgG1, V domains shown)
VH: EVQLQESGPGLVKPSQTLSLTCTVSGGSITNSYYASSWIRQPPGKGLEWMGVIIYDGSTYYSPSLKSRTSISRDTSKNQFSLQLSSVTPEDTAVYYCARGLRVAGSYFTDFGTWGQGTQVTVSS
VL: SYELTQSPSVSVALRQAAKITCGGDNIASKHAHWYQQKPGQSPVLVIYKDSNRPSGIPERFSGSNSGNTATLTVSGAQAEDEADYYCQVWDSSANAAVFGGGTHLTVLG
B6: 4F6 (antibody, human IgG1, V domains shown)
VH: QLQLVESGGGLVQPGGSLRLSCAASGFTFDDYAMSWVRQAPGKGLEWVSAISWNGGSTYYAESMKGRFTISRDNAKNTLYLQMNSLKSKDTAVYYCARRRYGLGSEYDYWGQGTQVTVSS
VL: HSAVTQPSAVSVSLGQTARITCQGTNLRSSYVHWYQQMPGQAPVLVIYRDSERPSGIPERFSGSSSGGTATLAISGAQAEDEADYYCQSAHRSESAVFGGGTHLTVLG
B7: 4E8 (antibody, human IgG1, V domains shown)
VH: B6 VH with Q1E, L2V, V5Q
VL: NFMLTQPSAVSVSLGQTARITCQGSSFGSSYAHWYQQMPGQAPILVIYRDSERPSGIPDRFSGSNSGGTATLTISGAQAEDEADYYCQSGSSSGNAHAVFGGGTHLTVLG
B8: 3F11 (antibody, human IgG1, V domains shown)
VH: QVQLVESGGGLVQPGGSLRLSCAASGFTFSSYWMYWVRQAPGKGLEWVSAINTGGGSTYYADSVKGRFTISRDNAKNTLYLQMNSLKPEDTALYYCARGPGYSGSYIEGWAYWGQGTQVTVSS
VL: DIVMTQSPTSVTASVGEKVTINCKSSQSVVSGSNQKSYLNWYQQRPGQSPRLLIYHASTQESGIPDRFSGSGSTTDFTLTISSVQPEDAAVYYCQQAYNNPYSFGSGTRLEIK
B9: 2F12 (antibody, human IgG1, V domains shown)
VH: B8 VH with S105K
VL: B8 VL with T9R, T20F, G32E, K36R, H56Y, I64L, N99S, N100A
B10: 3E1 (antibody, human IgG1, V domains shown)
VH: B8 VH with Q1E, L4V, V5Q, S105K
VL: B8 VL with T9S, N34K, H56Y, N99S, N100A
B11: 6H8 (antibody, human IgG1, V domains shown)
VH: EVQLVESGGGLVQPGGTLRLSCAASGFTFSNYWMHWVRQAPGKGLEWVSVIDRGGGGTRYADSVKGRFTISRDNAKNTLYLRMNSLKPEDTALYYCTRDRNGEYDYWGRGTQVTVSS
VL: DIQMTQSPSSVTASAGEKVTINCKSSQSVLYSSNQKNYLAWYQQRLGQSPRLLIYWASTRESGVPDRFSGSGSTTDFTLTINNFQPEDAAVYYCQQGYSAPLTFGQGTKVELK
B12: 4F7 (antibody, human IgG1, V domains shown)
VH: QVQLQESGPGLVKPSQTLSLTCTVSGGSITTSFYAWSWIRQPPGKGLEWMGVIAYDGRTFYSPSLKSRTHISRDTSKNQFSLQLSSVTPEDTAVYYCARGGVVAWSYDYWGQGTQVTVSS
VL: SYELTQSPSVSVALRQTAKITCGGNDIGSKSTQWYQQKAGQAPVLVIYADSRRPSGIPERFSGSNSGNTATLTISGAQAEDEADYYCQVWDSRADAAVFGGGTHLTVLG

Molecular target: T2, Nt-GCGR-hFc (human, UniProt P47871 26-136)
T2 construct: domain: N-terminal domain; also called Nt-GCGR-Fc; recombinant N-terminal domain of GCGR; not shown: hFc
Assay: scFv binding ELISA, periplasmic extract on coated Nt-GCGR

T2 sequence (P47871 26-136): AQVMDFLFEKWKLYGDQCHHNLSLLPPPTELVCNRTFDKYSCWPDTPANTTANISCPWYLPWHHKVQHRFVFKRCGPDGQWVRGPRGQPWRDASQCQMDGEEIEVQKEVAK

ScFv binding ELISA signal | Binder
0.52 | B1
0.987 | B2
0.1 | B3

Molecular target: T1, hNav1.7-loopA3-llama Fc fusion
Assay: ELISA, coated hNav1.7-loopA3-llama Fc, mAb titrated
Experimental: mAbs originating from the loopA3-llama Fc immunization were assayed for their affinity for hNav1.7-loopA3. Therefore, a Maxisorp plate was coated with 10 ng/well of loopA3-llamaFc chimera and incubated overnight at 4° C. The next day, the plate was blocked with PBS+1% casein for 2 hours at RT. Subsequently a concentration gradient of antibodies was applied (range 0.25 pM-66 nM) for another hour. Antibody binding to loopA3 was detected using a HRP-conjugated anti-human Fc antibody (Abcam, Ab7499) (incubation 1 hour at RT, dilution 1/5000 in PBS+0.1% casein), followed by TMB addition and OD620 nm measurement. EC50 values were determined using GraphPad Prism software. For comparison purposes a known hNav1.7-loopA3 binding monoclonal antibody, UCB_932 (US2011/0135662), was tested.

EC50 [nM] | Binder
0.067 | B4
0.071 | B5
0.874 | B6
0.129 | B7
0.072 | B8
0.057 | B9
0.063 | B10
0.066 | B11
0.057 | B12

Molecular target: T1, hNav1.7-loopA3-llama Fc fusion
Assay: Biacore SPR, antigen on CM5 chip, mAb in flow
Experimental: (§1) In a further experiment, affinity of the loopA3-binding mAbs was determined using Biacore Surface Plasmon Resonance (SPR) analysis.

Kd [nM] | koff [s⁻¹] | Binder
0.12 | 4.48e-05 | B4
0.0375 | 1.26e-05 | B5
5.1 | 0.00422 | B6
4.28 | 0.000422 | B7
0.0253 | 1.56e-05 | B8
0.0241 | 1.92e-05 | B9
0.2 | 0.00041 | B10
0.00181 | 3.58e-06 | B11
0.084 | 2.68e-05 | B12

Molecular target: T3, GST-tagged hNav1.7-loopA3 (human, UniProt Q15858 269-339)
T3 construct: monomeric GST-tagged peptide; also called hNav1.7-loopA3-GST; Nav1.7-loopA3-GST; not shown: GST tag
Assay: Biacore SPR, antigen on CM5 chip, mAb in flow
Experimental: as §1

T3 sequence (Q15858 269-339 limits assumed): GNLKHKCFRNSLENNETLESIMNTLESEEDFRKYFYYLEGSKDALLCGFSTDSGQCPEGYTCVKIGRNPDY

Kd [nM] | koff [s⁻¹] | Binder
0.0505 | 1.54e-05 | B4
0.0879 | 2.13e-05 | B5
3.35 | 0.00254 | B6
45.2 | 0.00063 | B7
0.0374 | 1.77e-05 | B8
0.0169 | 1.08e-05 | B9
0.216 | 0.000356 | B10
0.000609 | 6.9e-07 | B11
0.0825 | 1.84e-05 | B12
